Experimental data published in US20210388087A1 (Chugai, published 2021).

Target: T1, Human CD137 ECD (human)
T1 construct: also called 4-1BB
Assay: single mutant vs template dBBDu183H

T1 sequence (chain, as listed by the source limits assumed): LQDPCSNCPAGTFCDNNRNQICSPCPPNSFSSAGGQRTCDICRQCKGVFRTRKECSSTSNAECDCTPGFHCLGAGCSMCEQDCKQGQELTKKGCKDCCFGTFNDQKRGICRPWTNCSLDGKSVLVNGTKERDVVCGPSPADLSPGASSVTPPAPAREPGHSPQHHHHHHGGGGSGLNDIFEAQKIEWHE

fold change of affinity [fold]	Binder
0	H183/L072 VH A98P (antibody, name in Kabat numbering, V domains shown) VH: QVQLVESGGGLVQPGRSLRLSCAASGFTFSNAWMHWVRQAPGKGLEWVAQIKDKGNAYAAYYAPSVKGRFTISRDDSKNSIYLQMNSLKTEDTAVYYCHYVHYPSASTVLPAFGVDAWGQGTTVTVSS VL: DIVMTQSPLSLPVTPGEPASISCQASQELVHMNRNTYLHWYQQKPGQAPRLLIYKVSNRFPGVPDRFSGSGSGTDFTLKISRVEAEDVGVYYCAQGTSVPFTFGQGTKLEIK
0.3	H183/L072 VH A100P (antibody, name in Kabat numbering, V domains shown) VH: QVQLVESGGGLVQPGRSLRLSCAASGFTFSNAWMHWVRQAPGKGLEWVAQIKDKGNAYAAYYAPSVKGRFTISRDDSKNSIYLQMNSLKTEDTAVYYCHYVHYASPSTVLPAFGVDAWGQGTTVTVSS VL: DIVMTQSPLSLPVTPGEPASISCQASQELVHMNRNTYLHWYQQKPGQAPRLLIYKVSNRFPGVPDRFSGSGSGTDFTLKISRVEAEDVGVYYCAQGTSVPFTFGQGTKLEIK
0	H183/L072 VH A100fI (antibody, name in Kabat numbering, V domains shown) VH: QVQLVESGGGLVQPGRSLRLSCAASGFTFSNAWMHWVRQAPGKGLEWVAQIKDKGNAYAAYYAPSVKGRFTISRDDSKNSIYLQMNSLKTEDTAVYYCHYVHYASASTVLPIFGVDAWGQGTTVTVSS VL: DIVMTQSPLSLPVTPGEPASISCQASQELVHMNRNTYLHWYQQKPGQAPRLLIYKVSNRFPGVPDRFSGSGSGTDFTLKISRVEAEDVGVYYCAQGTSVPFTFGQGTKLEIK
0	H183/L072 VH A100fM (antibody, name in Kabat numbering, V domains shown) VH: QVQLVESGGGLVQPGRSLRLSCAASGFTFSNAWMHWVRQAPGKGLEWVAQIKDKGNAYAAYYAPSVKGRFTISRDDSKNSIYLQMNSLKTEDTAVYYCHYVHYASASTVLPMFGVDAWGQGTTVTVSS VL: DIVMTQSPLSLPVTPGEPASISCQASQELVHMNRNTYLHWYQQKPGQAPRLLIYKVSNRFPGVPDRFSGSGSGTDFTLKISRVEAEDVGVYYCAQGTSVPFTFGQGTKLEIK
0	H183/L072 VH A100fL (antibody, name in Kabat numbering, V domains shown) VH: QVQLVESGGGLVQPGRSLRLSCAASGFTFSNAWMHWVRQAPGKGLEWVAQIKDKGNAYAAYYAPSVKGRFTISRDDSKNSIYLQMNSLKTEDTAVYYCHYVHYASASTVLPLFGVDAWGQGTTVTVSS VL: DIVMTQSPLSLPVTPGEPASISCQASQELVHMNRNTYLHWYQQKPGQAPRLLIYKVSNRFPGVPDRFSGSGSGTDFTLKISRVEAEDVGVYYCAQGTSVPFTFGQGTKLEIK
0	H183/L072 VH A100I (antibody, name in Kabat numbering, V domains shown) VH: QVQLVESGGGLVQPGRSLRLSCAASGFTFSNAWMHWVRQAPGKGLEWVAQIKDKGNAYAAYYAPSVKGRFTISRDDSKNSIYLQMNSLKTEDTAVYYCHYVHYASISTVLPAFGVDAWGQGTTVTVSS VL: DIVMTQSPLSLPVTPGEPASISCQASQELVHMNRNTYLHWYQQKPGQAPRLLIYKVSNRFPGVPDRFSGSGSGTDFTLKISRVEAEDVGVYYCAQGTSVPFTFGQGTKLEIK
0	H183/L072 VH A100L (antibody, name in Kabat numbering, V domains shown) VH: QVQLVESGGGLVQPGRSLRLSCAASGFTFSNAWMHWVRQAPGKGLEWVAQIKDKGNAYAAYYAPSVKGRFTISRDDSKNSIYLQMNSLKTEDTAVYYCHYVHYASLSTVLPAFGVDAWGQGTTVTVSS VL: DIVMTQSPLSLPVTPGEPASISCQASQELVHMNRNTYLHWYQQKPGQAPRLLIYKVSNRFPGVPDRFSGSGSGTDFTLKISRVEAEDVGVYYCAQGTSVPFTFGQGTKLEIK
0.7	H183/L072 VH A100M (antibody, name in Kabat numbering, V domains shown) VH: QVQLVESGGGLVQPGRSLRLSCAASGFTFSNAWMHWVRQAPGKGLEWVAQIKDKGNAYAAYYAPSVKGRFTISRDDSKNSIYLQMNSLKTEDTAVYYCHYVHYASMSTVLPAFGVDAWGQGTTVTVSS VL: DIVMTQSPLSLPVTPGEPASISCQASQELVHMNRNTYLHWYQQKPGQAPRLLIYKVSNRFPGVPDRFSGSGSGTDFTLKISRVEAEDVGVYYCAQGTSVPFTFGQGTKLEIK
